Biological target: T1, CasEnd-1 (synthetic construct)
T1 chain: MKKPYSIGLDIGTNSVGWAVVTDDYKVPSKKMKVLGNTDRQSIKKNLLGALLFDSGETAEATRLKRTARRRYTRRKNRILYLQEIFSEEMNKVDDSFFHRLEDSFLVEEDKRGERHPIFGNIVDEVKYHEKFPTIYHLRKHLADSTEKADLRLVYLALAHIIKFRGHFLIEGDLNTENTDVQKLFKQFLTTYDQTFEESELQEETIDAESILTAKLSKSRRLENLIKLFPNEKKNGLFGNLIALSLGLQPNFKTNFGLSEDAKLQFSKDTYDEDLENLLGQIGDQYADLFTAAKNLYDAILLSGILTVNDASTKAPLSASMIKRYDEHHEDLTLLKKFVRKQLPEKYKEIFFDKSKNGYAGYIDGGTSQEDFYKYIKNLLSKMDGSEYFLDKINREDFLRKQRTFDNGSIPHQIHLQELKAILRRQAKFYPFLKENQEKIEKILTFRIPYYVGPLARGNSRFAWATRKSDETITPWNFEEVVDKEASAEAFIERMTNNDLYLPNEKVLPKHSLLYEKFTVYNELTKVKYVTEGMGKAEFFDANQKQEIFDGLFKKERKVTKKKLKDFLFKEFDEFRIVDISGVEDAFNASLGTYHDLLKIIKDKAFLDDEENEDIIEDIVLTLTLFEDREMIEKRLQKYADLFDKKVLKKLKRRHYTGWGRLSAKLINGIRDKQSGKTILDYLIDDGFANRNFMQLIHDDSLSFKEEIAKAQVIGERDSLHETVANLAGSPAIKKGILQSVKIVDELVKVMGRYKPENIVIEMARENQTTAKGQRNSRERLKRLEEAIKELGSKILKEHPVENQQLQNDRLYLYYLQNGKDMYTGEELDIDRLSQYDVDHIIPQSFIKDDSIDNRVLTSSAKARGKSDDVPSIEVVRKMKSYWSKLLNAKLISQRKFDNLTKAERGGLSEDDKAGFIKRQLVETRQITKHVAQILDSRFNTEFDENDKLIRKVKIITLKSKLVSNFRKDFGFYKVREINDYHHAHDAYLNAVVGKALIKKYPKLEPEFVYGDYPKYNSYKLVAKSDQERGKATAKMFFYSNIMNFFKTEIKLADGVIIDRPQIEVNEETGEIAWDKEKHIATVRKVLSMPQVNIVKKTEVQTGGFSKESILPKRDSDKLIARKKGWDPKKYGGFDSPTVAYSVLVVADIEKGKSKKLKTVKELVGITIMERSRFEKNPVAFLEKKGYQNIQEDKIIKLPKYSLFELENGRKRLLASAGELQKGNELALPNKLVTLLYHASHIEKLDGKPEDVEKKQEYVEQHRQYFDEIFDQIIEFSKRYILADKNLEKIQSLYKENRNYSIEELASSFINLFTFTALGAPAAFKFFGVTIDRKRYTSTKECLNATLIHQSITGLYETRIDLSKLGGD
Assay: cell_activity; +++; HEK293T; PAM not stated
Summary of the method: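 BFP-to-GFP conversion via reverse transcriptase fusion with each Cas endonuclease plus template RNA: 200 ng of each plasmid nucleofected into 250,000 BFP-expressing HEK293T cells (program DS-150). Percent GFP+ cells by flow cytometry at day 4 measured editing.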

B1: BFP-to-GFP template RNA ; BFP reporter protospacer (ssRNA ; dsDNA)
RNA: GCCGAAGCACUGCACGCCGUGUUUUAGAGCUAGAAAUAGCAAGUUAAAAUAAGGCUAGUCCGUUAUCAACUUGAAAAAGUGGCACCGAGUCGGUGCACCCUGACGUACGGCGUGCAGUGCUU
DNA 1: GCCGAAGCACTGCACGCCGT
DNA 2: ACGGCGTGCAGTGCTTCGGC
  activity: ≥ 100 % of reference

From patent US20250092426, “CAS ENDONUCLEASES AND RELATED METHODS” (Flagship Pioneering Innovations VII, LLC, published 2025)
